We go through four substances from patent US20060246084A1.

pKd: −log10 of the molar value.

As a reminder, the pKd is the Kd on a negative log10 scale, so that one unit is a factor of ten.

Assay [1] concerns the target receptors of human cells in the presence of IFN-α2 (human) (UniProt P01563). Briefly: 125I-LcrV68-326 plus unlabelled IFN-α2 on human monocytes.
Assay [2] has the same target. Briefly: 125I-LcrV68-326 plus unlabelled IFN-α2 on human neutrophils.
For assay [3] the target is unchanged. Briefly: 125I-LcrV68-326 plus unlabelled IFN-α2 on U937 cells.
In assay [4] the target is synthetic fragment of the mouse TLR-2 extracellular domain (mouse).
Assay [5] deals with receptors of human cells in the presence of IFN-α2 (human) (UniProt P01563). In words: 125I-LcrV68-326 plus unlabelled IFN-α2 on human thymocytes.
Assay [6] addresses human TLR-2 receptor on CD14-positive human thymic epithelial VTEC2.HS cells (human) (UniProt O60603). In words: 125I radioligand on VTEC2.HS cells; binding not detectable.
Assay [7] addresses IFN-γ C-terminal peptide … (human).
Assay [8] concerns the target IFN-γ receptor on human cells (no IFN-γ added) (human) (UniProt P15260). In words: 125I-LcrV68-326 alone on U937 cells.
For assay [9] the target is unchanged. Briefly: 125I-LcrV68-326 alone on human thymocytes.
For assay [10], the target named is human TLR-2 receptor on CD14-positive human thymic epithelial VTEC2.HS cells (human) (UniProt O60603). In words: Scatchard analysis, 125I radioligand on VTEC2.HS cells.
The target of assay [11] is IFN-γ receptor on human cells (no IFN-γ added) (human) (UniProt P15260). In words: 125I-LcrV68-326 alone on human monocytes.
Assay [12] shares this target. In words: 125I-LcrV68-326 alone on human neutrophils.

Chain of IFN-γ receptor on human cells (no IFN-γ added) (human) (P15260 18-489): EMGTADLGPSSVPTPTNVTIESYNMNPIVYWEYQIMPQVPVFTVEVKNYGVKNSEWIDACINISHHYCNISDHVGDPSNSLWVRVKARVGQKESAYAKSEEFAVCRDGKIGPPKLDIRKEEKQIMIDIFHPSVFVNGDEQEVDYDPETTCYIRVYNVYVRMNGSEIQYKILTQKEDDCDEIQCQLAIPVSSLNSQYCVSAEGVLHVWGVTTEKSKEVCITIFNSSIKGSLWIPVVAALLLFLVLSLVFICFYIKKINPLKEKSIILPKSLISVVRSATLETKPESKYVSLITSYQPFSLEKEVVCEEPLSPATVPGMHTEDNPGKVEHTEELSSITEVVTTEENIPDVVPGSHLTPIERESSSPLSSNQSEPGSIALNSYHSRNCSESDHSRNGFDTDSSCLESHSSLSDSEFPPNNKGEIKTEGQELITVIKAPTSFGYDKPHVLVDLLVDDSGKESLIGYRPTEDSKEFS
Chain of human TLR-2 receptor on CD14-positive human thymic epithelial VTEC2.HS cells (human) (O60603 21-784): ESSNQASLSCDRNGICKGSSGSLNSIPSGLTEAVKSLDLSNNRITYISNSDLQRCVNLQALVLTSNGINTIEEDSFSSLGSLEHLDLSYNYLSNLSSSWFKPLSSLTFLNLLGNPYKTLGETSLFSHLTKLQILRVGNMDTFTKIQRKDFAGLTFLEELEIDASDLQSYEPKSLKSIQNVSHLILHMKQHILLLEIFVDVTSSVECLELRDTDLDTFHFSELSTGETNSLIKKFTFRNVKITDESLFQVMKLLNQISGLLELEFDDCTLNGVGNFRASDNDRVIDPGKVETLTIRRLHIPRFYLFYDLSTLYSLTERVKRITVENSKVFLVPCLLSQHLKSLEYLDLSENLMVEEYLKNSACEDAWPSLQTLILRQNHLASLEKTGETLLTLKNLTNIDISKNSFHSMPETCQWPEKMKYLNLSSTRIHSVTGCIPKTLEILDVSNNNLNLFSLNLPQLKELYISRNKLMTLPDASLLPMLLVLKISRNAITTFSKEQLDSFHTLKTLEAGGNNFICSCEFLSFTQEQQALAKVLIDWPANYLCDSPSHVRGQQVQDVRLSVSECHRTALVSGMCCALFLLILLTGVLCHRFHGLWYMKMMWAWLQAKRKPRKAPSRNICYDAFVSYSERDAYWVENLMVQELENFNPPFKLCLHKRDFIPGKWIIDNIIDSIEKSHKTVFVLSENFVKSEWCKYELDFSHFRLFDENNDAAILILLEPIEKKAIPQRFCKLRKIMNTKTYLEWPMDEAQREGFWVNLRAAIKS

In the case of “LcrV68-326, N-terminally truncated LcrV (from UniProt P0C7U7 68-326)”, the negative logarithm of the Kd (pKd) in assay [1] is 3.00; in assay [2], 3.00; in assay [3] it was 3.00; in assay [4], 9.26; in [5] it was 3.00.
Turning to “LcrV (V antigen) of Yersinia pestis KIM, recombinant, freed of hexahistidine (from UniProt P0C7U7 1-326) (other; other documents disagree on this pair)”, the pKd in assay [6] was 3.00.
“LcrV (V antigen) of Yersinia pestis KIM, recombinant, freed of hexahistidine (from UniProt P0C7U7 1-326)”: the negative logarithm of the Kd (pKd) in [7] is 11.22.
“LcrV68-326, N-terminally truncated LcrV (from UniProt P0C7U7 68-326) (other; other documents disagree on this pair)”: the pKd in [8] is 3.00; in [9], 3.00; in assay [10], 9.10; in [11] it was 3.00; in [12], 3.00.
